Assay results published in patent publication US20020039999A1.

Molecular target: opioid receptors of rat brain homogenate ([3H]-Naloxone binding sites)
Assay: [3H]-Naloxone (1.0 nM) displacement, rat brain homogenate, filtration

% inhibition at 0.1 nM [%] | % inhibition at 10 nM [%] | % inhibition at 1000 nM [%] | Substance
1.66 | -0.19 | 44.1 | Dynorphin A 2-13-NH2 (peptide)
-3.21 | 4.87 | 12.7 | Dynorphin A 2-17-NH2 (peptide)
-0.6 |  |  | Human serum albumin (HSA) (from UniProt P02768 25-609)
2.76 | 9.89 | 91.8 | Dynorphin A 1-13-NH2 (peptide)
